Measured values published in the supplement of paper PMC10201428.
± gives the standard deviation of the averaged measurements.

What was measured:
[1] = system: VchCAST RNA-guided transposition machinery (E. coli BL21(DE3) host, lacZ target); assay: relative integration efficiency (T-RL orientation) vs wild-type transposon end (log2 (normalized fold change)); transposon end mutated: left end; higher = more efficient transposition
In short: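 A T7-driven effector plasmid encoding a CRISPR array, tniQ-cas8-cas7-cas6 and tnsA-tnsB-tnsC was co-transformed into E. coli BL21(DE3) together with a pUC57 mini-transposon donor holding barcoded pools of 1549 left-end or 1849 right-end variants. Transformants were plated with 0.1 mM IPTG at 37°C for 18 h. Illumina sequencing of PCR-amplified input plasmids and genomic integration junctions gave barcode abundances, and relative integration efficiency is their output/input fold change, normalised to reference barcodes and log-transformed.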

[2] = system: VchCAST RNA-guided transposition machinery (E. coli BL21(DE3) host, lacZ target); assay: relative integration efficiency (T-LR orientation) vs wild-type transposon end (log2 (normalized fold change)); transposon end mutated: left end; higher = more efficient transposition
Method: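 Pooled, barcoded VchCAST (Tn6677) mini-transposon donor libraries; each variable transposon-end sequence sits in a fixed pDonor mini-transposon context (10-bp barcode and cargo not included). Left- or right-end libraries were co-transformed with pEffector (TniQ-Cascade, TnsABC, lacZ crRNA, T7, 0.1 mM IPTG) into E. coli BL21(DE3) and grown 18 h at 37 C. T-LR and T-RL junction amplicons were sequenced; output/input barcode fold change was normalised to the mean of four wild-type barcodes and log2-transformed. Two biological replicates; zero-count/undetected variants carry floor values (-10 / -15), censored here. Barcode uncoupling by PCR recombination adds noise.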

Sequence	relative integration efficiency (log2) [1]	relative integration efficiency (log2) [2]
AATGTTGTTGATGCAACCATAAAGTGATATTTAACAACCATAAAGTGATATTTAACTTAACCACAAACAACCATATATTGATATCTCACAAAACAACCATAAGTTGATATTTTTGTGAATCGAGTATTTCAGCAAAACTACTGCAGTAAGAA	-2.56 ± 0.5	1.37 ± 1.1
AATGTTGTTGATGCAACCATAAAGTGATATTTAACAACCATATATTGATATCTCACAAAACAACCATAAGTTGATATTTTTAATTATTTATAATCAGCAACTTAACCACAAAATGTGAATCGAGTATTTCAGCAAAACTACTGCAGTAAGAA	-1.58 ± 0.69	-0.212 ± 1.1
AATGTTGTTGATGCAACCATAAAGTGATATTTAACAACCATATATTGATATCTCACAAAACAACCATAAGTTGATATTTTTGTGAATCGAGTATTTCAGCAAAACTACTGCAGTAAGAAAGTTACTTCGTGGTATGGGAGGATCAAGGAGCC	-2.74 ± 1	-0.0605 ± 1
AATGTTGTTGATGCAACCATAAAGTGATATTTAACAACCATATATTGATATCTCTAATTATTTATAATCAGCAACTTAACCACAAAAACAAAACAACCATAAGTTGATATTTTTGTGAATCGAGTATTTCAGCAAAACTACTGCAGTAAGAA	-2.13 ± 0.82	-0.167 ± 0.77
AATGTTGTTGATGCAACCATAAAGTGATATTTAACAAGACTAACATTATTAGTAACTGAGAACTATGCAACCATATATTGATATCTCACAAAACAACCATAAGTTGATATTTTTGTGAATCGAGTATTTCAGCAAAACTACTGCAGTAAGAA	-2.4 ± 0.87	-2.85 ± 0.45
AATGTTGTTGATGCAACCATAAAGTGATATTTAACTCTCTTCTTTAGCAGTCTAGTCTATTGAAACTCAACCATATATTGATATCTCACAAAACAACCATAAGTTGATATTTTTGTGAATCGAGTATTTCAGCAAAACTACTGCAGTAAGAA	-3.73 ± 1.2	-5.31 ± 0.24
AATGTTGTTGATGCAACCATAAAGTGATATTTAAGCCGGCGGGCGCCGACTACCAGGCCAACACCCCACCAACGCGCGGTCGCGAGACACCCCACCAACGCCTGGTCGCGGGGGTGTCCGATCTGATTTCAGCAAAACTACTGCAGTAAGAA	-6.95 ± 1.1	-5.38 ± 1
AATGTTGTTGATGCAACCATAAAGTGATATTTAAGCTATACTCTAGGTATCTAACTTGTCCCATTGCCAACCATATATTGATATCTCACAAAACAACCATAAGTTGATATTTTTGTGAATCGAGTATTTCAGCAAAACTACTGCAGTAAGAA	-4.82 ± 1.4	-3.91 ± 1.4
AATGTTGTTGATGCAACCATAAAGTGATATTTAAGTACTGCGCGTCTGAAGTCATCTTTAAACCGAACAACCATATATTGATATCTCACAAAACAACCATAAGTTGATATTTTTGTGAATCGAGTATTTCAGCAAAACTACTGCAGTAAGAA	-3.55 ± 0.95	-3.06 ± 1.1
AATGTTGTTGATGCAACCATAAAGTGATATTTAATAACAACCATAAAGTGATATTTAACTTAACCACCAACCATATATTGATATCTCACAAAACAACCATAAGTTGATATTTTTGTGAATCGAGTATTTCAGCAAAACTACTGCAGTAAGAA	-4.66 ± 1.1	-3.39 ± 0.26
AATGTTGTTGATGCAACCATAAAGTGATATTTAATAACAACCATATATTGATATCTCACAAAACAACCATAAGTTGATATTTTTGTGAATCGAGTATTTCAGCAAAACTACTGCAGTAAGAAAGTTACTTCGTGGTATGGGAGGATCAAGGA	-5.54 ± 1.1	-3.02 ± 1.5
AATGTTGTTGATGCAACCATAAAGTGATATTTAATAACAACCATATATTGATATCTCACAAAACAACCATAAGTTGATATTTTTTATTTATAATCAGCAACTTAACCACAAAATGTGAATCGAGTATTTCAGCAAAACTACTGCAGTAAGAA	-3.74 ± 0.68	-1.89 ± 1
AATGTTGTTGATGCAACCATAAAGTGATATTTAATAACAACCATATATTGATATCTCTTATTTATAATCAGCAACTTAACCACAAAAACAAAACAACCATAAGTTGATATTTTTGTGAATCGAGTATTTCAGCAAAACTACTGCAGTAAGAA	-3.58 ± 1	-2.07 ± 1.8
AATGTTGTTGATGCAACCATAAAGTGATATTTAATAACTTCGTATAAAGTATCCTATACGAAGTTATCAACCATATATTGATATCTCACAAAACAACCATAAGTTGATATTTTTGTGAATCGAGTATTTCAGCAAAACTACTGCAGTAAGAA	-2.17 ± 0.99	-2.99 ± 2.4
AATGTTGTTGATGCAACCATAAAGTGATATTTAATAACTTCGTATAAGGTATACTATACGAAGTTATCAACCATATATTGATATCTCACAAAACAACCATAAGTTGATATTTTTGTGAATCGAGTATTTCAGCAAAACTACTGCAGTAAGAA	-3.34 ± 1.1	-3.52 ± 1.1
AATGTTGTTGATGCAACCATAAAGTGATATTTAATAACTTCGTATAATGTATACTATACGAAGTTATCAACCATATATTGATATCTCACAAAACAACCATAAGTTGATATTTTTGTGAATCGAGTATTTCAGCAAAACTACTGCAGTAAGAA	-3.05 ± 1.2	-2.57 ± 2.1
AATGTTGTTGATGCAACCATAAAGTGATATTTAATAACTTCGTATAATGTATCGTATACGAACGGTACAACCATATATTGATATCTCACAAAACAACCATAAGTTGATATTTTTGTGAATCGAGTATTTCAGCAAAACTACTGCAGTAAGAA	-3.32 ± 0.82	-4.18 ± 0.64
AATGTTGTTGATGCAACCATAAAGTGATATTTAATAACTTCGTATAATGTATGCTATACGAAGTTATCAACCATATATTGATATCTCACAAAACAACCATAAGTTGATATTTTTGTGAATCGAGTATTTCAGCAAAACTACTGCAGTAAGAA	-2.95 ± 1.1	-3.76 ± 2.9
AATGTTGTTGATGCAACCATAAAGTGATATTTAATAACTTCGTATAGGATACTTTATACGAAGTTATCAACCATATATTGATATCTCACAAAACAACCATAAGTTGATATTTTTGTGAATCGAGTATTTCAGCAAAACTACTGCAGTAAGAA	-3.72 ± 1.3	-3.99 ± 1.5
AATGTTGTTGATGCAACCATAAAGTGATATTTAATAACTTCGTATAGTATACATTATACGAAGTTATCAACCATATATTGATATCTCACAAAACAACCATAAGTTGATATTTTTGTGAATCGAGTATTTCAGCAAAACTACTGCAGTAAGAA	-2.92 ± 1	-4.118 ± 0.013
AATGTTGTTGATGCAACCATAAAGTGATATTTAATAACTTGGTATAGCATACATTATACGAACGGTACAACCATATATTGATATCTCACAAAACAACCATAAGTTGATATTTTTGTGAATCGAGTATTTCAGCAAAACTACTGCAGTAAGAA	-3.71 ± 1.4	-4.2 ± 0.86
AATGTTGTTGATGCAACCATAAAGTGATATTTAATAAGGCGGGCGCCGACTACCAGGCCAACACCCCACCAACGCGCGGTCGCGAGACACCCCACCAACGCCTGGTCGCGGGGGTGTCCGATCTGATTTCAGCAAAACTACTGCAGTAAGAA	-7.05 ± 1.6	-3.73 ± 1.5
AATGTTGTTGATGCAACCATAAAGTGATATTTAATAATCAACCATAAAGTGATATTTAACTTAACCACAACCATATATTGATATCTCACAAAACAACCATAAGTTGATATTTTTGTGAATCGAGTATTTCAGCAAAACTACTGCAGTAAGAA	-2.68 ± 0.72	-4.25 ± 0.83
AATGTTGTTGATGCAACCATAAAGTGATATTTAATAATCAACCATATATTGATATCTCACAAAACAACCATAAGTTGATATTTTTGTGAATCGAGTATTTCAGCAAAACTACTGCAGTAAGAAAGTTACTTCGTGGTATGGGAGGATCAAGG	-7.79 ± 2.1	< -10
AATGTTGTTGATGCAACCATAAAGTGATATTTAATAATCAACCATATATTGATATCTCTATTTATAATCAGCAACTTAACCACAAAAACAAAACAACCATAAGTTGATATTTTTGTGAATCGAGTATTTCAGCAAAACTACTGCAGTAAGAA	-2.9 ± 1.1	-0.761 ± 1
AATGTTGTTGATGCAACCATAAAGTGATATTTAATAATCAACTGTATATAAATACAGTTCCACAAAACAACCATATATTGATATCTCACAAAACAACCATAAGTTGATATTTTTGTGAATCGAGTATTTCAGCAAAACTACTGCAGTAAGAA	-4.85 ± 1.1	-5.77 ± 0.6
AATGTTGTTGATGCAACCATAAAGTGATATTTAATAATGCGGGCGCCGACTACCAGGCCAACACCCCACCAACGCGCGGTCGCGAGACACCCCACCAACGCCTGGTCGCGGGGGTGTCCGATCTGATTTCAGCAAAACTACTGCAGTAAGAA	-7.04 ± 1.2	-5.9 ± 3.3
AATGTTGTTGATGCAACCATAAAGTGATATTTAATAATGGAATTGTGAGCGGATAACAATTACAAAACAACCATATATTGATATCTCACAAAACAACCATAAGTTGATATTTTTGTGAATCGAGTATTTCAGCAAAACTACTGCAGTAAGAA	-4.89 ± 0.52	-3.41 ± 0.6
AATGTTGTTGATGCAACCATAAAGTGATATTTAATAATTACAACCATATATTGATATCTCTTTATAATCAGCAACTTAACCACAAAAACAAAACAACCATAAGTTGATATTTTTGTGAATCGAGTATTTCAGCAAAACTACTGCAGTAAGAA	-4.31 ± 0.99	-2.04 ± 1.6
AATGTTGTTGATGCAACCATAAAGTGATATTTAATAATTAGGGCGCCGACTACCAGGCCAACACCCCACCAACGCGCGGTCGCGAGACACCCCACCAACGCCTGGTCGCGGGGGTGTCCGATCTGATTTCAGCAAAACTACTGCAGTAAGAA	-7.07 ± 0.66	-4.57 ± 0.92
